Data reported in US20040254347.
Entries after “also recorded” stand apart in the source; their conditions may differ.

T1: Fusion Protein No:1 (GST fused with insert SEQ ID NO:2)
T1 chain: QIKS

T2: Fusion protein FP#3 (GST fused with insert SEQ ID NO:4)
T2 chain: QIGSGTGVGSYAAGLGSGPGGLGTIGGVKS

T3: Fusion protein FP#2 (GST fused with insert SEQ ID NO:3)
T3 chain: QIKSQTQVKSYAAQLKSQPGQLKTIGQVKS

B1: tissue transglutaminase from guinea pig's liver (protein)
chain: AEDLILERCDLQLEVNGRDHRTADLCRERLVLRRGQPFWLTLHFEGRGYEAGVDTLTFNAVTGPDPSEEAGTMARFSLSSAVEGGTWSASAVDQQDSTVSLLLSTPADAPIGLYRLSLEASTGYQGSSFVLGHFILLYNPRCPADAVYMDSDQERQEYVLTQQGFIYQGSAKFINGIPWNFGQFEDGILDICLMLLDTNPKFLKNAGQDCSRRSRPVYVGRVVSAMVNCNDDQGVLQGRWDNNYSDGVSPMSWIGSVDILRRWKDYGCQRVKYGQCWVFAAVACTVLRCLGIPTRVVTNFNSAHDQNSNLLIEYFRNESGEIEGNKSEMIWNFHCWVESWMTRPDLEPGYEGWQALDPTPQEKSEGTYCCGPVPVRAIKEGHLNVKYDAPFVFAEVNADVVNWIRQKDGSLRKSINHLVVGLKISTKSVGRDEREDITHTYKYPEGSEEEREAFVRANHLNKLATKEEAQEETGVAMRIRVGQNMTMGSDFDIFAYITNGTAESHECQLLLCARIVSYNGVLGPVCSTNDLLNLTLDPFSENSIPLHILYEKYGDYLTESNLIKVRGLLIEPAANSYVLAERDIYLENPEIKIRVLGEPKQNRKLIAEVSLKNPLPVPLLGCIFTVEGAGLTKDQKSVEVPDPVEAGEQAKVRVDLLPTEVGLHKLVVNFECDKLKAVKGYRNVIIGPA
B2: Thrombin-activated factor XIII (human blood factor XIII) (protein)
chain: GVNLQEFLNVTSVHLFKERWDTNKVDHHTDKYENNKLIVRRGQSFYVQIDFSRPYDPRRDLFRVEYVIGRYPQENKGTYIPVPIVSELQSGKWGAKIVMREDRSVRLSIQSSPKCIVGKFRMYVAVWTPYGVLRTSRNPETDTYILFNPWCEDDAVYLDNEKEREEYVLNDIGVIFYGEVNDIKTRSWSYGQFEDGILDTCLYVMDRAQMDLSGRGNPIKVSRVGSAMVNAKDDEGVLVGSWDNIYAYGVPPSAWTGSVDILLEYRSSENPVRYGQCWVFAGVFNTFLRCLGIPARIVTNYFSAHDNDANLQMDIFLEEDGNVNSKLTKDSVWNYHCWNEAWMTRPDLPVGFGGWQAVDSTPQENSDGMYRCGPASVQAIKHGHVCFQFDAPFVFAEVNSDLIYITAKKDGTHVVENVDATHIGKLIVTKQIGGDGMMDITDTYKFQEGQEEERLALETALMYGAKKPLNTEGVMKSRSNVDMDFEVENAVLGKDFKLSITFRNNSHNRYTITAYLSANITFYTGVPKAEFKKETFDVTLEPLSFKKEAVLIQAGEYMGQLLEQASLHFFVTARINETRDVLAKQKSTVLTIPEIIIKVRGTQVVGSDMTVTVEFTNPLKETLRNVWVHLDGPGVTRPMKKMFREIRPNSTVQWEEVCRPWVSGHRKLIASMSSDSLRHVYGELDVQIQRRPSM
B3: mouse coagulating gland transglutaminase (TG4) (protein)
chain: MDSRNVLIIYAVNVERKLNAAAHHTSEYQTKKLVLRRGQIFTLKVILNRPLQPQDELKVTFTSGQRDPPYMVELDPVTSYRSKGWQVKIAKQSGVEVILNVISAADAVVGRYKMRVNEYKAGVFYLLFNPWCSDDSVFMASEEERAEYILNDTGYMYMGFAKQIKEKPWTFGQFEKHILSCCFNLLFQLENNEMQNPVLVSRAICTMMCAANGGVLMGNWTGDYADGTAPYVWTSSVPILQQHYVTRMPVRYGQCWVFSGILTTALRAVGIPARSVTNFESAHDTEKNLTVDIYLDESGKTIPHLTKDSVWNFHVWTDAWMKRQDLPHGYDGWQVLDSTPQEISDGGFRTGPSPLTAIRQGLIQMKYDTTFVFTEVNGDKFIWLVKQNQEREKNILIAVETASLGKKISTKMVGENRREDITLQYRFPEGSPEERKVMAKASGKPSDDKLNSRTLNNSLQISVLQNSLELGAPIYLTITLKRKTATPQNVNISCSLNLQTYTGNKKTNLGVIQKTVQIHGQESRVFLTMDASYYIYKLGMVDDEMVIGGFIIAEIVDSGERVATDTTLCFLYSAFSVEMPSTGKVKQPLVITSKFTNTLPIPLTNIKFSVESLGLANMKSWEQETVPPGKTITFQMECTPVKAGPQKFIVKFISRQVKEVHAEKVVLISK

How the values were obtained:
[1] = target: T1, Fusion Protein No:1 (GST fused with …)
[2] = target: T2, Fusion protein FP#3 (GST fused with …)
[3] = target: T3, Fusion protein FP#2 (GST fused with …)

| Protein | cross-linking by transglutaminase, SDS-PAGE [1] | cross-linking by transglutaminase, SDS-PAGE [2] | cross-linking by transglutaminase, SDS-PAGE [3] |
| --- | --- | --- | --- |
| B1 | FP#1 was cross-linked to a dimer by the enzyme reaction; also recorded: FP#1, with the essential sequence of QXKS/T, is a good substrate of transglutaminases from different sources | the enzyme was able to cross-link FP#3 | the enzyme-catalyzed cross-links of FP#2 were very striking ... There were almost no FP#2 monomer left after the enzyme reaction |
| B2 | FP#1, with the essential sequence of QXKS/T, is a good substrate of transglutaminases from different sources |  |  |
| B3 | FP#1, with the essential sequence of QXKS/T, is a good substrate of transglutaminases from different sources |  |  |
